In article PMC10019796 (Scientific Reports, 2023):

Legend:
[1] = molecular target: T1, mtDsbC-SARS-CoV-2 RBD wild type fusion protein (SARS-CoV-2, wild type (Wuhan-Hu-1), UniProt P0DTC2, biotin (EZ-Link NHS-PEG4-Biotin)); assay: BLI; biotinylated mtDsbC-RBD (20 µg/mL) immobilised on streptavidin (SA) biosensors, Fabs as analytes at three nanomolar concentrations; Octet RED384, 30 °C, 1000 rpm, 1 × PBS Kinetics Buffer; 1:1 interaction model, global fit; conditions: both partners purified
T1 construct: also called RBD SARS-CoV-2 (wild type); mtDsbC-RBD; not shown: mtDsbC solubility tag, N-terminal, kept

[2] = molecular target: T2, mtDsbC-SARS-CoV-2 RBD Alpha variant (B.1.1.7) fusion protein (SARS-CoV-2, Alpha (B.1.1.7), RBD N501Y, N501Y, biotin (EZ-Link NHS-PEG4-Biotin)); assay: as above; conditions: both partners purified
T2 construct: also called RBD SARS-CoV-2 (alpha variant); not shown: mtDsbC solubility tag, N-terminal, kept

B1: REGN10933 (Casirivimab) Fab wild type (Fab, V domains shown)
VH: QVQLVESGGGLVKPGGSLRLSCAASGFTFSDYYMSWIRQAPGKGLEWVSYITYSGSTIYYADSVKGRFTISRDNAKSSLYLQMNSLRAEDTAVYYCARDRGTTMVPFDYWGQGTLVTVSS
VL: DIQMTQSPSSLSASVGDRVTITCQASQDITNYLNWYQQKPGKAPKLLIYAASNLETGVPSRFSGSGSGTDFTFTISGLQPEDIATYYCQQYDNLPLTFGGGTKVEIK
notes: Fab heavy chain of REGN10933; Fab light chain of REGN10933; Polycistronic gene, light chain upstream of heavy chain; also called REGN10933 wild type; REGN10933 Fab
Kd [1]: 2.84 nM | Kd [2]: 3.12 nM

B2: REGN10933 (N93Q) Fab (Fab, V domains shown)
VH: QVQLVESGGGLVKPGGSLRLSCAASGFTFSDYYMSWIRQAPGKGLEWVSYITYSGSTIYYADSVKGRFTISRDNAKSSLYLQMNSLRAEDTAVYYCARDRGTTMVPFDYWGQGTLVTVSS
VL: DIQMTQSPSSLSASVGDRVTITCQASQDITNYLNWYQQKPGKAPKLLIYAASNLETGVPSRFSGSGSGTDFTFTISGLQPEDIATYYCQQYDQLPLTFGGGTKVEIK
Kd [1]: 2.76 nM | Kd [2]: 3.42 nM

B3: REGN10987 (Imdevimab) Fab wild type (Fab, V domains shown)
VH: QVQLVESGGGVVQPGRSLRLSCAASGFTFSNYAMYWVRQAPGKGLEWVAVISYDGSNKYYADSVKGRFTISRDNSKNTLYLQMNSLRTEDTAVYYCASGSDYGDYLLVYWGQGTLVTVSS
VL: QSALTQPASVSGSPGQSITISCTGTSSDVGGYNYVSWYQQHPGKAPKLMIYDVSKRPSGVSNRFSGSKSGNTASLTISGLQSEDEADYYCNSLTSISTWVFGGGTKLTVL
notes: Fab heavy chain of REGN10987; Fab light chain of REGN10987; Polycistronic gene, light chain upstream of heavy chain; also called REGN10987 wild type; REGN10987 Fab
Kd [1]: 43.9 nM | Kd [2]: 54.1 nM

B4: REGN10987 (S95K) Fab (Fab, V domains shown)
VH: QVQLVESGGGVVQPGRSLRLSCAASGFTFSNYAMYWVRQAPGKGLEWVAVISYDGSNKYYADSVKGRFTISRDNSKNTLYLQMNSLRTEDTAVYYCASGSDYGDYLLVYWGQGTLVTVSS
VL: QSALTQPASVSGSPGQSITISCTGTSSDVGGYNYVSWYQQHPGKAPKLMIYDVSKRPSGVSNRFSGSKSGNTASLTISGLQSEDEADYYCNSLTKISTWVFGGGTKLTVL
Kd [1]: 30.5 nM | Kd [2]: 22.8 nM

B5: REGN10987 (N31D) Fab (Fab, V domains shown)
VH: QVQLVESGGGVVQPGRSLRLSCAASGFTFSDYAMYWVRQAPGKGLEWVAVISYDGSNKYYADSVKGRFTISRDNSKNTLYLQMNSLRTEDTAVYYCASGSDYGDYLLVYWGQGTLVTVSS
VL: QSALTQPASVSGSPGQSITISCTGTSSDVGGYNYVSWYQQHPGKAPKLMIYDVSKRPSGVSNRFSGSKSGNTASLTISGLQSEDEADYYCNSLTSISTWVFGGGTKLTVL
Kd [1]: 17.9 nM | Kd [2]: 13.7 nM

B6: REGN10933 (T28E) Fab (Fab, V domains shown)
VH: QVQLVESGGGLVKPGGSLRLSCAASGFEFSDYYMSWIRQAPGKGLEWVSYITYSGSTIYYADSVKGRFTISRDNAKSSLYLQMNSLRAEDTAVYYCARDRGTTMVPFDYWGQGTLVTVSS
VL: DIQMTQSPSSLSASVGDRVTITCQASQDITNYLNWYQQKPGKAPKLLIYAASNLETGVPSRFSGSGSGTDFTFTISGLQPEDIATYYCQQYDNLPLTFGGGTKVEIK
Kd [1]: < 0.001 nM | Kd [2]: < 0.001 nM

B7: REGN10933 (A75S) Fab (Fab, V domains shown)
VH: QVQLVESGGGLVKPGGSLRLSCAASGFTFSDYYMSWIRQAPGKGLEWVSYITYSGSTIYYADSVKGRFTISRDNSKSSLYLQMNSLRAEDTAVYYCARDRGTTMVPFDYWGQGTLVTVSS
VL: DIQMTQSPSSLSASVGDRVTITCQASQDITNYLNWYQQKPGKAPKLLIYAASNLETGVPSRFSGSGSGTDFTFTISGLQPEDIATYYCQQYDNLPLTFGGGTKVEIK
Kd [1]: 3.22 nM | Kd [2]: 2.75 nM

B8: REGN10933 (M104N) Fab (Fab, V domains shown)
VH: QVQLVESGGGLVKPGGSLRLSCAASGFTFSDYYMSWIRQAPGKGLEWVSYITYSGSTIYYADSVKGRFTISRDNAKSSLYLQMNSLRAEDTAVYYCARDRGTTNVPFDYWGQGTLVTVSS
VL: DIQMTQSPSSLSASVGDRVTITCQASQDITNYLNWYQQKPGKAPKLLIYAASNLETGVPSRFSGSGSGTDFTFTISGLQPEDIATYYCQQYDNLPLTFGGGTKVEIK
Kd [1]: 143 nM | Kd [2]: 119 nM
